The target of experiment [1] is Recombinant human DPP4 (R&D systems, #9168-SE) (human).
In experiment [2] the target is recombinant human PREP (R&D systems, #4308-SE) (human).
The target of experiment [3] is KV channel. Description: radioligand displacement, reference compound of the panel.
The target in experiment [4] is BZD (central). Description: radioligand displacement, 10 uM compound.
Experiment [5] has as its target KV channel. Description: radioligand displacement, 10 uM compound.
The target in experiment [6] is NMDA. Description: radioligand displacement, 10 uM compound.
Experiment [7] concerns the target MAO-A. In words: radioligand displacement, 10 uM compound.
The target in experiment [8] is Ca2+ channel (L, dihydropyridine site). Description: radioligand displacement, 10 uM compound.
Experiment [9] addresses Na+ channel (site 2). In words: radioligand displacement, 10 uM compound.
Experiment [10] has as its target PDE3A (h) (human (printed (h))) (UniProt Q14432).
The target in experiment [11] is COX1(h) (human (printed (h))) (UniProt P23219).
Sequence of COX1(h) (human (printed (h))) (P23219 24-599 limits assumed): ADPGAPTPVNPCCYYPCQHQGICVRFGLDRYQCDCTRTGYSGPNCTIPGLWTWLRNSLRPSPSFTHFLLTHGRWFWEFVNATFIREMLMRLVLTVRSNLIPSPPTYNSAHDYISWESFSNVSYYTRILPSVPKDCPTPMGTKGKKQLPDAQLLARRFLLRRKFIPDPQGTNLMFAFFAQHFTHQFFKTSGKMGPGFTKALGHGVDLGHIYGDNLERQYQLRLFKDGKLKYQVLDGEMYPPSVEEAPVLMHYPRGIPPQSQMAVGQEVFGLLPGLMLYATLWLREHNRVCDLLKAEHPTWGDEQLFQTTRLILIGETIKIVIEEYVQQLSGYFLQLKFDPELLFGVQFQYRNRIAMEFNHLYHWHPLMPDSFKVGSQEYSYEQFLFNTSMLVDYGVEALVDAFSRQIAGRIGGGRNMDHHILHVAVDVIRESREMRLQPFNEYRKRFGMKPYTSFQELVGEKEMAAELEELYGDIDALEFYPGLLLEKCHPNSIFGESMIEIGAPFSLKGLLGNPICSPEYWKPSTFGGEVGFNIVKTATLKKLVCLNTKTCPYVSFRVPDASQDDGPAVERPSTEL
In experiment [12] the target is T1, COX2(h) (human (printed (h))) (UniProt P35354).
T1 sequence: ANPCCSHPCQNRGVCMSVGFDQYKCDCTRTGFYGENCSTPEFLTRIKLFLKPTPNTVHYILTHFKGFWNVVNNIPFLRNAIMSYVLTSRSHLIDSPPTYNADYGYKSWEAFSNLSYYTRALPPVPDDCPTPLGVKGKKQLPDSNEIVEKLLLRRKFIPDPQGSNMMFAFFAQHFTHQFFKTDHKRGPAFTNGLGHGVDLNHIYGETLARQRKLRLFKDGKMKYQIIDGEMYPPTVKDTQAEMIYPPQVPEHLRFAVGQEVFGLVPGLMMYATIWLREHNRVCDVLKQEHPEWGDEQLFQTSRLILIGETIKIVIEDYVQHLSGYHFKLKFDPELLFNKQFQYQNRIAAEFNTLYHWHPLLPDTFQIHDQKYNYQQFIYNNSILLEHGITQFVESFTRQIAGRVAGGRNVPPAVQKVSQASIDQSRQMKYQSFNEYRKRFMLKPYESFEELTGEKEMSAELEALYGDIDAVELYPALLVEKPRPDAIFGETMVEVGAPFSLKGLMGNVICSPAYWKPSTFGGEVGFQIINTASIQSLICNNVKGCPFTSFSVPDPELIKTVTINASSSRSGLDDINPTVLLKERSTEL

Experiment [13] has as its target PDE4D2 (h) (human (printed (h))) (UniProt Q08499).
In experiment [14] the target is Acetylcholinesterase (h) (human (printed (h))) (UniProt P22303).
In experiment [15] the target is Lck kinase (h) (human (printed (h))) (UniProt P06239).
For experiment [16], the target named is delta (DOP) (h) (human (printed (h))) (UniProt P41143). In words: radioligand displacement, reference compound of the panel.
Experiment [17] has as its target mu (MOP) (h) (human (printed (h))) (UniProt P35372). The description is as above.
Experiment [18] has as its target human fibroblast activation protein (FAP) on FAP-expressing human WI-38 fibroblasts (human). In words: competition FACS, WI-38 cells, vs Cy5-labeled compound; D: pIC50 ≤6.0.
For experiment [19], the target named is T2, Recombinant human FAP (R&D systems, #3715-SE) (human).
T2 sequence: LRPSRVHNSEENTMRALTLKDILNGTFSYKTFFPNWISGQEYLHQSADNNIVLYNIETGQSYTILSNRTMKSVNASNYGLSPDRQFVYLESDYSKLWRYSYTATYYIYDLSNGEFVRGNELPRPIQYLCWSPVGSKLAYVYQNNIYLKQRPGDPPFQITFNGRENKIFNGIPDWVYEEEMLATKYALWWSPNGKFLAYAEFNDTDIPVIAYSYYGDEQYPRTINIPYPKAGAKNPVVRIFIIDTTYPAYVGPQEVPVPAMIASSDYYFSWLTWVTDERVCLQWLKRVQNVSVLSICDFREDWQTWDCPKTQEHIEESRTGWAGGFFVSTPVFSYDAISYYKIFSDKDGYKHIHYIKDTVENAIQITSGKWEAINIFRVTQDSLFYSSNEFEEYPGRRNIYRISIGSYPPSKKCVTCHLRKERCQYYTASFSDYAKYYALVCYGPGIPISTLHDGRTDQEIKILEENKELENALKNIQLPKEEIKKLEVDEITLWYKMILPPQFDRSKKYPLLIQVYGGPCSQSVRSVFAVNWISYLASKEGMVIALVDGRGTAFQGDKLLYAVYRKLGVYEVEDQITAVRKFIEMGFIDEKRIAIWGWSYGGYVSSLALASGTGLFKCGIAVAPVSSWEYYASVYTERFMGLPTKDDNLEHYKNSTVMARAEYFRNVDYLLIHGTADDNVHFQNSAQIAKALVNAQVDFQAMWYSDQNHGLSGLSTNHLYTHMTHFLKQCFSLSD

Sequence of PDE4D2 (h) (human (printed (h))) (Q08499 303-809): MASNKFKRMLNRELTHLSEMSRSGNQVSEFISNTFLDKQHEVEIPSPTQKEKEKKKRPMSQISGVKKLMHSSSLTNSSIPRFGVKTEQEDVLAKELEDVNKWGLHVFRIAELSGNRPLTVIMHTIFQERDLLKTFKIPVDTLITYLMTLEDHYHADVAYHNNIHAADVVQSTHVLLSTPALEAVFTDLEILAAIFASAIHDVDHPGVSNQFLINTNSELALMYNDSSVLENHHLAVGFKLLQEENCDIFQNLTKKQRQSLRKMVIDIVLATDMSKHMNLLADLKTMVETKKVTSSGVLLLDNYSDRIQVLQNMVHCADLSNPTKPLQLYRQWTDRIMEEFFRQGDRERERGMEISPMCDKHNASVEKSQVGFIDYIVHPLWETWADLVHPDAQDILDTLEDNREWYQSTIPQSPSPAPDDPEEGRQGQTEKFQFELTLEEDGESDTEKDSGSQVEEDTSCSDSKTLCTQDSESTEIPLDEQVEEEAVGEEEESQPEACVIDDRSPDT

As for “DOTA-Ttds-Nle-[Cys(3MeBn)-Pro-Pro-Thr-Glu-Phe-Cys]-Asp-Pamb-Arg-NH2 (3BP-3321) (peptide)”, in experiment [1], the pIC50 (DPP4) was less than 6 pIC50. Moreover, in experiment [2], the pIC50 (PREP) is less than 6 pIC50.
“DOTA-Ttds-Nle-[Cys(3MeBn)-Pro-Pro-Thr-Glu-Phe-Cys]-Asp-His-Phe-Arg-Asp-NH2 (3BP-3168) (peptide)”: in experiment [1], the pIC50 (DPP4) is less than 6 pIC50. For the same substance, the pIC50 (PREP) in experiment [2] is less than 6 pIC50.
On to “DOTA-Ttds-Nle-[Cys(3MeBn)-Pro-Pro-Thr-Glu-Phe-Cys]-NH2 (3BP-3319) (peptide)”, for which the pIC50 (DPP4) in [1] was less than 6 pIC50. For the same substance, the pIC50 (PREP) in experiment [2] was found to be 6.2 pIC50.
The substance “alpha-dendrotoxin (from UniProt P00980) (peptide)” yielded a Ki in [3] of 0.097 nM. That is a picomolar value.
For “DOTA-Ttds-Nle-[Cys(3MeBn)-Pro-Pro-Thr-Glu-Phe-Cys]-Asp-NH2 (3BP-3320) (peptide)”, the pIC50 (DPP4) in [1] was less than 6 pIC50. In addition, in [2], the pIC50 (PREP) was less than 6 pIC50.
Consider “Hex-[Cys(tMeBn(DOTA-PP))-Pro-Pro-Thr-Gln-Phe-Cys]-Asp-NH2 (3BP-3407) (peptide)”, for which the % Inhibition of Specific Binding in experiment [4] was -9%; in [5] it was -5%; in [6], 9%; in experiment [7], -5%; in [8], 42%; in experiment [9], -7%. Moreover, the pIC50 (DPP4) in experiment [1] is less than 6 pIC50. Besides, the pIC50 (PREP) in experiment [2] is less than 6 pIC50. Further, the % inhibition of control enzyme activity is -3% in experiment [10]; 10% in experiment [11]; -14% in experiment [12]; -5% in [13]; -6% in experiment [14]; 10% in [15].
Consider “Hex-[Cys(3MeBn)-Pro-Pro-Thr-Glu-Phe-Cys]-Asp-His-Nmf-Arg-Ttds-Lys(DOTA)-NH2 (3BP-3275) (peptide)”, for which, in [1], the pIC50 (DPP4) was less than 6 pIC50. Also, the pIC50 (PREP) in experiment [2] was less than 6 pIC50.
Consider “Hex-[Cys(3MeBn)-Pro-Pro-Thr-Glu-Phe-Cys]-Asp-His-Phe-Arg-Asp-Ttds-Lys(DOTA)-NH2 (3BP-3105) (peptide)”, for which the pIC50 (DPP4) in [1] was less than 6 pIC50. In addition, the pIC50 (PREP) in [2] is less than 6 pIC50.
With “H-Met-[Cys(3MeBn)-Pro-Pro-Thr-Glu-Phe-Cys]-Asp-His-Phe-Arg-Asp-Ttds-Lys(Bio)-NH2 (3BP-2881) (peptide)”, the pIC50 (DPP4) in experiment [1] was less than 6 pIC50. For the same substance, in experiment [2], the pIC50 (PREP) is less than 6 pIC50.
With “Hex-[Cys(tMeBn(DOTA-AET))-Pro-Pro-Thr-Gln-Phe-Cys]-OH (3BP-3554) (peptide)”, the % Inhibition of Specific Binding in experiment [4] was 5%; in [5] it was 4%; in [6] it was 1%; in [7] it was -25%; in [8], 54%; in [9] it was 14%. The % inhibition of control enzyme activity in experiment [10] was -37%; in experiment [11], 8%; in experiment [12] it was -22%; in [13] it was -4%; in experiment [14], 1%; in [15] it was -4%.
With DPDPE (peptide), the Ki in [16] worked out at 1.2 nM.
Take “Hex-[Cys(3MeBn)-Pro-Pro-Thr-Gln-Phe-Cys]-Bhk(DOTA)-OH (3BP-3397) (peptide)”: the pIC50 (DPP4) in [1] was less than 6 pIC50. Moreover, in experiment [2], the pIC50 (PREP) is less than 6 pIC50.
DAMGO (peptide) registered a Ki in experiment [17] of 0.37 nM.
“Hex-[Cys(3MeBn)-Pro-Pro-Thr-Glu-Nphe-Cys]-NH2 (peptide)” showed a pIC50 Category (FACS) in [18] of less than 6 pIC50. Further, the pIC50 Category (Activity) in experiment [19] was less than 6 pIC50.
As to “[3MeBn-Spa-Pro-Pro-Thr-Gln-Phe-Cys]-Asp-NH2 (3BP-3419) (peptide)”, the pIC50 (DPP4) in experiment [1] is less than 6 pIC50. Further, in [2], the pIC50 (PREP) is less than 6 pIC50.
“DOTA-Ttds-Nle-[Cys(3MeBn)-Pro-Pro-Thr-Gln-Phe-Cys]-Bal-OH (3BP-3398) (peptide)”: in experiment [1], the pIC50 (DPP4) was less than 6 pIC50. In [2], the pIC50 (PREP) is less than 6 pIC50.

Source of the values: patent publication US20220315554A1, “COMPOUNDS COMPRISING A […] LIGAND AND USE THEREOF” (priority 2019, published 2022).
